Laboratory results: patent publication US20180155451A1 (published 2018)

T1: FcγRIIb extracellular domain with C-terminal His tag (human, UniProt P31994 43-217)
T1 construct: extracellular domain; also called 2b; FcgRIIb; not shown: His tag at the C terminus
T1 sequence (looked up): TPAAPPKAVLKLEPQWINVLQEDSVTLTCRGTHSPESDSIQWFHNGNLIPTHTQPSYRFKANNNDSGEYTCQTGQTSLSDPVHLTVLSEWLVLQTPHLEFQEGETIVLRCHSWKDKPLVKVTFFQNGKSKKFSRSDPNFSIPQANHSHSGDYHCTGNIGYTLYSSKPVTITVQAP

T2: FcγRIIb (human, UniProt P31994 43-217)
T2 construct: extracellular domain; also called 2b; FcgRIIb
T2 sequence (looked up): T1 sequence (looked up)

B1: GpH7-A5/GpH7-B3 variant D265_04F/GpL16-k0 (antibody, human IgG1, kappa)
heavy 1: not shown
heavy 2: not shown
light: DIVMTQSPLSLPVTPGEPASISCQASESLVHSNRNTYLHWYLQKPGQSPQLLIYKVSNRFSGVPDRFSGSGSGTDFTLKISRVEAEDVGVYYCSQNTHVPPTFGQGTKVEIERTVAAPSVFIFPPSDEQLKSGTASVVCLLNNFYPREAKVQWKVDNALQSGNSQESVTEQDSKDSTYSLSSTLTLSKADYEKHKVYACEVTHQGLSSPVTKSFNRGEC
notes: He Ab: mutation in the GpH7-B3 H chain only; also called He Ab
B2: GpH7-A5/GpH7-B3 variant V266_20W/GpL16-k0 (antibody, human IgG1, kappa)
heavy 1: not shown
heavy 2: not shown
light: B1 light
notes: as for B1
B3: GpH7-A5/GpH7-B3 variant S324_06M/GpL16-k0 (antibody, human IgG1, kappa)
heavy 1: not shown
heavy 2: not shown
light: B1 light
notes: also called He Ab S324_06M
B4: GpH7-A5/GpH7-B3 variant T335_18N/GpL16-k0 (antibody, human IgG1, kappa)
heavy 1: not shown
heavy 2: not shown
light: B1 light
notes: also called He Ab T335_18N
B5: GpH7-A5/GpH7-B3 variant A327_09D/GpL16-k0 (antibody, human IgG1, kappa)
heavy 1: not shown
heavy 2: not shown
light: B1 light
notes: as for B1
B6: GpH7-A5/GpH7-B3 variant D265_03V/GpL16-k0 (antibody, human IgG1, kappa)
heavy 1: not shown
heavy 2: not shown
light: B1 light
notes: as for B1
B7: GpH7-A5/GpH7-B3 variant P331_20W/GpL16-k0 (antibody, human IgG1, kappa)
heavy 1: not shown
heavy 2: not shown
light: B1 light
notes: also called He Ab P331_20W
B8: GpH7-A5/GpH7-B3 variant T335_13S/GpL16-k0 (antibody, human IgG1, kappa)
heavy 1: not shown
heavy 2: not shown
light: B1 light
notes: also called He Ab T335_13S
B9: GpH7-A5/GpH7-B3 variant S337_16H/GpL16-k0 (antibody, human IgG1, kappa)
heavy 1: not shown
heavy 2: not shown
light: B1 light
notes: also called He Ab S337_16H
B10: GpH7-A5/GpH7-B3 variant P331_16H/GpL16-k0 (antibody, human IgG1, kappa)
heavy 1: not shown
heavy 2: not shown
light: B1 light
notes: also called He Ab P331_16H
B11: GpH7-A5/GpH7-B3 variant S337_07I/GpL16-k0 (antibody, human IgG1, kappa)
heavy 1: not shown
heavy 2: not shown
light: B1 light
notes: also called He Ab S337_07I
B12: GpH7-A5/GpH7-B3 variant T335_07I/GpL16-k0 (antibody, human IgG1, kappa)
heavy 1: not shown
heavy 2: not shown
light: B1 light
notes: also called He Ab T335_07I
B13: GpH7-A5/GpH7-B3 variant V266_06M/GpL16-k0 (antibody, human IgG1, kappa)
heavy 1: not shown
heavy 2: not shown
light: B1 light
notes: also called He Ab V266_06M
B14: GpH7-A5/GpH7-B3 variant P331_03V/GpL16-k0 (antibody, human IgG1, kappa)
heavy 1: not shown
heavy 2: not shown
light: B1 light
notes: also called He Ab P331_03V
B15: GpH7-A5/GpH7-B3 variant A327_07I/GpL16-k0 (antibody, human IgG1, kappa)
heavy 1: not shown
heavy 2: not shown
light: B1 light
notes: as for B1
B16: GpH7-A5/GpH7-B3 variant Y296_20W/GpL16-k0 (antibody, human IgG1, kappa)
heavy 1: not shown
heavy 2: not shown
light: B1 light
notes: also called He Ab Y296_20W
B17: GpH7-A5/GpH7-B3 variant D265_12R/GpL16-k0 (antibody, human IgG1, kappa)
heavy 1: not shown
heavy 2: not shown
light: B1 light
notes: as for B1
B18: GpH7-A5/GpH7-B3 variant T335_15Y/GpL16-k0 (antibody, human IgG1, kappa)
heavy 1: not shown
heavy 2: not shown
light: B1 light
notes: also called He Ab T335_15Y
B19: GpH7-A5/GpH7-B3 variant P331_07I/GpL16-k0 (antibody, human IgG1, kappa)
heavy 1: not shown
heavy 2: not shown
light: B1 light
notes: also called He Ab P331_07I
B20: GpH7-A5/GpH7-B3 variant D265_06M/GpL16-k0 (antibody, human IgG1, kappa)
heavy 1: not shown
heavy 2: not shown
light: B1 light
notes: as for B1
B21: GpH7-A5/GpH7-B3 variant D265_07I/GpL16-k0 (antibody, human IgG1, kappa)
heavy 1: not shown
heavy 2: not shown
light: B1 light
notes: as for B1
B22: GpH7-A5/GpH7-B3 variant D265_11K/GpL16-k0 (antibody, human IgG1, kappa)
heavy 1: not shown
heavy 2: not shown
light: B1 light
notes: as for B1
B23: GpH7-A5/GpH7-B3 variant S267_06M/GpL16-k0 (antibody, human IgG1, kappa)
heavy 1: not shown
heavy 2: not shown
light: B1 light
notes: also called He Ab S267_06M
B24: GpH7-A5/GpH7-B3 variant D265_19Q/GpL16-k0 (antibody, human IgG1, kappa)
heavy 1: not shown
heavy 2: not shown
light: B1 light
notes: as for B1
B25: GpH7-A5/GpH7-B3 variant P271_10E/GpL16-k0 (antibody, human IgG1, kappa)
heavy 1: not shown
heavy 2: not shown
light: B1 light
notes: also called He Ab P271_10E
B26: GpH7-A5/GpH7-B3 variant S298_06M/GpL16-k0 (antibody, human IgG1, kappa)
heavy 1: not shown
heavy 2: not shown
light: B1 light
notes: also called He Ab S298_06M

Key:
[1] = target: T3, FcγRIIIa extracellular domain with C-terminal His tag (human, UniProt P08637 17-208); test: SPR (Biacore), relative binding, GpH7-A5/GpH7-B3/GpL16-k0 = 100
T3 construct: extracellular domain; also called 3a; FcgRIIIa; not shown: His tag at the C terminus
T3 sequence (P08637 17-208): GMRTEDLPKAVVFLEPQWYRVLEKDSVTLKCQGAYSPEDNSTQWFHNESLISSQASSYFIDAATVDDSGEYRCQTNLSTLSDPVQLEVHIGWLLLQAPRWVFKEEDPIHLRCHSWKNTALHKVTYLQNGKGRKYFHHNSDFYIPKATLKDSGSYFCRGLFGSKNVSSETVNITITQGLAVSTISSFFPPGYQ
Description: (§1) Analysis of interaction between objective antibody and the FcγR was carried out using Biacore T100 (GE Healthcare). HBS-EP+ (GE Healthcare) was used as the running buffer, and the measurement temperature was set to 25° C. Chips produced by immobilizing the antigen peptide by the amine coupling method to a Series S Sencor Chip CM5 (GE Healthcare), or alternatively, chips produced by allowing preliminarily biotinylated antigen peptides to interact with and immobilize onto a Series S Sensor Chip SA (certified) (GE Healthcare) were used. Antibodies of interest were captured onto an antigen peptide-immobilized chip, and allowed to interact to each FcγR diluted with running buffer. To regenerate and repeatedly use the chip, the antibodies captured on the chip were washed off by reacting 10 mM glycine-HCl, pH 1.5.
(§2) The FcγR-binding activity of each antibody was assessed primarily using as an indicator the FcγR-binding activity and dissociation constant for FcγR.

[2] = target: T1, FcγRIIb extracellular domain with …; test: as above
Description: as §1, §2

FcγRIIb = target: T2, FcγRIIb; test: SPR (Biacore), binding relative to GpH7-A5/GpH7-B3/GpL16-k0 = 100
Description: as §1, §2

| Binder | He/Con_3a [1] | He/Con_2b [2] | He/Con_2b (FcγRIIb) |
| --- | --- | --- | --- |
| B1 | 0 % of control | 3.2 % of control | – |
| B2 | – | 71.9 % of control | – |
| B3 | – | – | 112 % of control |
| B4 | – | – | 102 % of control |
| B5 | 83.7 % of control | 172 % of control | – |
| B6 | 0.6 % of control | 3.2 % of control | – |
| B7 | – | – | 111 % of control |
| B8 | – | – | 102 % of control |
| B9 | – | – | 105 % of control |
| B10 | – | – | 116 % of control |
| B11 | – | – | 104 % of control |
| B12 | – | – | 106 % of control |
| B13 | – | – | 251 % of control |
| B14 | – | – | 119 % of control |
| B15 | 42.4 % of control | 127 % of control | – |
| B16 | – | – | 103 % of control |
| B17 | 3.2 % of control | 15 % of control | – |
| B18 | – | – | 108 % of control |
| B19 | – | – | 114 % of control |
| B20 | 2.6 % of control | 10 % of control | – |
| B21 | -0.8 % of control | 1.3 % of control | – |
| B22 | 2.5 % of control | 14.9 % of control | – |
| B23 | – | – | 210 % of control |
| B24 | – | 33.4 % of control | – |
| B25 | – | – | 109 % of control |
| B26 | – | – | 102 % of control |
